Source: patent publication US20240018251A1 (BIOHENG THERAPEUTICS, published 2024)
Numbering of substitutions follows the chain as printed.

T1: FITC labeled BCMA (acrobiosystem, Cat. No. BCA-HF254) (UniProt Q02223 1-54, FITC labeled (site not stated))
T1 construct: Soluble labeled protein used to stain CAR-T cells; also called BCMA antigen protein; BCMA protein
T1 sequence (looked up): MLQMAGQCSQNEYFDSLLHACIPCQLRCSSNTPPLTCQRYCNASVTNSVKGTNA

B1: chimeric antigen receptor comprising humanized anti-BCMA single domain antibody BH86_V2, on CAR-T cells (other)
chain: EVQLVESGGGLVKPGGSLRLSCAASGRAISSIVMAWVRQAPGKGLEWVASINRWGGTPYYSAPVKGRFTISRDDSKNTLYLQMNSLKTEDTAVYYCAAASTLDSGYDYWGQGTLVTVSSTTTPAPRPPTPAPTIASQPLSLRPEACRPAAGGAVHTRGLDFACDIYIWAPLAGTCGVLLLSLVITLYCKRGRKKLLYIFKQPFMRPVQTTQEEDGCSCRFPEEEEGGCELRVKFSRSADAPAYQQGQNQLYNELNLGRREEYDVLDKRRGRDPEMGGKPRRKNPQEGLYNELQKDKMAEAYSEIGMKGERRRGKGHDGLYQGLSTATKDTYDALHMQALPPR
B2: chimeric antigen receptor comprising humanized anti-BCMA single domain antibody BH60_V1, on CAR-T cells (other)
chain: QVQLVESGGGLVQPGGSLRLSCAVSGGIFTINDMAWFRQAPGKQRELVAHISRSGSTYYRDSVKGRFTISRDNSKNTLYLQMNSLRAEDTATYYCNSIDRPLSYGQGTLVTVSTTTPAPRPPTPAPTIASQPLSLRPEACRPAAGGAVHTRGLDFACDIYIWAPLAGTCGVLLLSLVITLYCKRGRKKLLYIFKQPFMRPVQTTQEEDGCSCRFPEEEEGGCELRVKFSRSADAPAYQQGQNQLYNELNLGRREEYDVLDKRRGRDPEMGGKPRRKNPQEGLYNELQKDKMAEAYSEIGMKGERRRGKGHDGLYQGLSTATKDTYDALHMQALPPR
B3: chimeric antigen receptor comprising humanized anti-BCMA single domain antibody BH60_V5, on CAR-T cells (other)
chain: B2 chain with A23V, S62F
B4: chimeric antigen receptor comprising humanized anti-BCMA single domain antibody BH60_GKV1, on CAR-T cells (other)
chain: B2 chain with A23V, V24A, S74A, T77S, T92V
B5: chimeric antigen receptor comprising humanized anti-BCMA single domain antibody BH60_V6, on CAR-T cells (other)
chain: B2 chain with A23V, S62F, L78S, S84N
B6: chimeric antigen receptor comprising humanized anti-BCMA single domain antibody BH60_GKV2, on CAR-T cells (other)
chain: B2 chain with V24A, S74A, T77S, T92V, L109Q
B7: chimeric antigen receptor comprising humanized anti-BCMA single domain antibody BH86_V1, on CAR-T cells (other)
chain: QVQLVESGGGLVQAGESLRLSCAASGRAISSIVMAWWRQTPGAEREFVASINRWGGTPYYSDSVKGRFTISRDNSKNTLYLQMNSLRAEDTAVYYCAAASTLDSGYDYWGQGTLVTVSTTTPAPRPPTPAPTIASQPLSLRPEACRPAAGGAVHTRGLDFACDIYIWAPLAGTCGVLLLSLVITLYCKRGRKKLLYIFKQPFMRPVQTTQEEDGCSCRFPEEEEGGCELRVKFSRSADAPAYQQGQNQLYNELNLGRREEYDVLDKRRGRDPEMGGKPRRKNPQEGLYNELQKDKMAEAYSEIGMKGERRRGKGHDGLYQGLSTATKDTYDALHMQALPPR
B8: chimeric antigen receptor comprising humanized anti-BCMA single domain antibody BH86_V4, on CAR-T cells (other)
chain: B7 chain with Q111H
B9: chimeric antigen receptor comprising humanized anti-BCMA single domain antibody BH86_V6, on CAR-T cells (other)
chain: B7 chain with D62N, T69A, L79I, Y80H, A88S, Q111H
B10: chimeric antigen receptor comprising humanized anti-BCMA single domain antibody BH86_GKV3, on CAR-T cells (other)
chain: B7 chain with V2E, Q3V, A14P, E16G, N74H, S75A, R87K, A88S, E89A, L114Q
B11: chimeric antigen receptor comprising humanized anti-BCMA single domain antibody BH86_GKV1, on CAR-T cells (other)
chain: B7 chain with V2E, Q3V, A14P, E16G, N74H, S75A, Q111H, L114Q
B12: chimeric antigen receptor comprising humanized anti-BCMA single domain antibody BH86_GKV2, on CAR-T cells (other)
chain: QEVLVESGGGLVQPGGSLRLSCAASGRAISSIVMAWWRQTPGAEREFVASINRWGGTPYYSDSVKGRFTISRDHAKNTLYLQMNSLKSADTAVYYCAAASTLDSGYDYWGPGTQVTVSTTTPAPRPPTPAPTIASQPLSLRPEACRPAAGGAVHTRGLDFACDIYIWAPLAGTCGVLLLSLVITLYCKRGRKKLLYIFKQPFMRPVQTTQEEDGCSCRFPEEEEGGCELRVKFSRSADAPAYQQGQNQLYNELNLGRREEYDVLDKRRGRDPEMGGKPRRKNPQEGLYNELQKDKMAEAYSEIGMKGERRRGKGHDGLYQGLSTATKDTYDALHMQALPPR
B13: chimeric antigen receptor comprising humanized anti-BCMA single domain antibody BH60_V3, on CAR-T cells (other)
chain: EVQLVESGGGLVQPGGSLRLSCVVSGGIFTINDMAWVRQAPGKGLEWVAHISRSGSTYYRDSVKGRFTISRDNAKNSLYLQMNSLRAEDTAVYYCNSIDRPLSYGQGTLVTVSSTTTPAPRPPTPAPTIASQPLSLRPEACRPAAGGAVHTRGLDFACDIYIWAPLAGTCGVLLLSLVITLYCKRGRKKLLYIFKQPFMRPVQTTQEEDGCSCRFPEEEEGGCELRVKFSRSADAPAYQQGQNQLYNELNLGRREEYDVLDKRRGRDPEMGGKPRRKNPQEGLYNELQKDKMAEAYSEIGMKGERRRGKGHDGLYQGLSTATKDTYDALHMQALPPR

Target: T1, FITC labeled BCMA (acrobiosystem, Cat. …)
Assay: flow cytometry, CAR-T cells stained with FITC labeled BCMA
Protocol: After culturing at 37° C. and 5% CO₂ for 10 days, FITC labeled BCMA (acrobiosystem, Cat. No. BCA-HF254) was used for binding specific staining, and the ability of the corresponding CAR-T cells to specifically bind to the BCMA antigen protein was detected by flow cytometry, which also reflected the expression level of the CAR molecule.

Question: Does B1 bind?
Answer: Result: binds

Question: Does B2 bind?
Answer: Result: binds

Question: Does B3 bind?
Answer: Result: binds

Question: Does B4 bind?
Answer: Result: binds

Question: Does B5 bind?
Answer: Result: binds

Question: Does B6 bind?
Answer: Result: binds

Question: Does B7 bind?
Answer: Result: binds

Question: Does B8 bind?
Answer: Result: binds

Question: Does B9 bind?
Answer: Result: binds

Question: Does B10 bind?
Answer: Result: binds

Question: Does B11 bind?
Answer: Result: binds

Question: Does B12 bind?
Answer: Result: binds

Question: Does B13 bind?
Answer: Result: binds
